In patent US20240301061A1:

Columns and labels:
CD3ε/δ [1] = molecular target: CD3ε/δ (UniProt P07766); assay: SPR
CD3ε/δ [2] = molecular target: CD3ε/δ (UniProt P07766); assay: SPR, antibody captured on anti-human Fc surface

CD3ε/δ, sequence (P07766 23-126, stated change not applied, chain 1 of 2): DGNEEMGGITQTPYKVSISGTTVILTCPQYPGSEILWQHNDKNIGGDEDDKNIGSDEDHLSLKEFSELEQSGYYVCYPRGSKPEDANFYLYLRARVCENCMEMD
CD3ε/δ, sequence (P04234 22-105, stated change not applied, chain 2 of 2, further chain): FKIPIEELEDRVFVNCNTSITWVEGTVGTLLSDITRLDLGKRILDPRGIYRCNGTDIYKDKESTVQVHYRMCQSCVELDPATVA

B1: humanized sp34 scFv BG561P (Fc fusion, not shown: a dimerising Fc or GST)
scFv: EVQLVESGGGLVQPGGSLRLSCAASGFTFNTYAMNWVRQAPGKGLEWVARIRSKYNNYATYYADSVKDRFTISRDDAKNSLYLQMNSLRAEDTAVYYCVRHGNFGNSYVSWFAYWGQGTLVTVSSGGGGSGGGGSGGGGSEIVLTQSPATLSVSPGERATLSCRSSTGAVTTSNYANWVQQKPGQAPRGLIGGTNKRAPGIPARFSGSLSGDEATLTISSLQSEDFAVYYCALWYSNLWVFGGGTKVEIK
B1 gave a Kd (CD3ε/δ [1]) of 25.9 nM, a koff (CD3ε/δ [1]) of 0.00188 s⁻¹ and a kon (CD3ε/δ [1]) of 72500 M⁻¹ s⁻¹.

B2: chimeric sp34 (antibody, V domains shown)
VH: EVQLVESGGGLVQPKGSLKLSCAASGFTFNTYAMNWVRQAPGKGLEWVARIRSKYNNYATYYADSVKDRFTISRDDSQSILYLQMNNLKTEDTAMYYCVRHGNFGNSYVSWFAYWGQGTLVTVSS
VL: QAVVTQESALTTSPGETVTLTCRSSTGAVTTSNYANWVQEKPDHLFTGLIGGTNKRAPGVPARFSGSLIGDKAALTITGAQTEDEAIYFCALWYSNLWVFGGGTKLTVL
In the case of B2, the Kd (CD3ε/δ [2]) is reported as 27.1 nM, the koff (CD3ε/δ [2]) is reported as 0.00296 s⁻¹ and the kon (CD3ε/δ [2]) is reported as 109000 M⁻¹ s⁻¹.
